# Measured values: paper PMC10718073 (Chemical Science, 2023)
# B1: TRAAK (K2p4.1b), residues 1-290 with N104Q and N108Q (domain or fragment)
# chain: MTTAPQEPPARPLQAGSGAGPAPGRAMRSTTLLALLALVLLYLVSGALVFRALEQPHEQQAQRELGEVREKFLRAHPCVSDQELGLLIKEVADALGGGADPETQSTSQSSHSAWDLGSAFFFSGTIITTIGYGNVALRTDAGRLFCIFYALVGIPLFGILLAGVGDRLGSSLRHGIGHIEAIFLKWHVPPELVRVLSAMLFLLIGCLLFVLTPTFVFCYMEDWSKLEAIYFVIVTLTTVGFGDYVAGADPRQDSPAYQPLVWFWILLGLAYFASVLTTIGNWLRVVSRRT
# B2: TREK2, residues 55-335 with T58A (domain or fragment)
# chain: MEGASQGGLQTVMKWKTVVAIFVVVVVYLVTGGLVFRALEQPFESSQKNTIALEKAEFLRDHVCVSPQELETLIQHALDADNAGVSPIGNSSNNSSHWDLGSAFFFAGTVITTIGYGNIAPSTEGGKIFCILYAIFGIPLFGFLLAGIGDQLGTIFGKSIARVEKVFRKKQVSQTKIRVISTILFILAGCIVFVTIPAVIFKYIEGWTALESIYFVVVTLTTVGFGDFVAGGNAGINYREWYKPLVWFWILVGLAYFAAVLSMIGDWLRVLSKKTKEEVGE
# modifications: glycans, treated with EndoH to reduce the glycan heterogeneity
# How the values were obtained:
# Test in all cases: native MS
# [1] = target: AqpZ with C-terminal fusion to the green fluorescent protein (Escherichia coli) (UniProt P60844)
# [2] = target: AmtB from Escherichia coli (Escherichia coli) (UniProt P69681)
# [3] = target: the molecule itself
# [4] = target: the molecule itself; remark: listed apart in the source
molecule,measurement,setting,value
AqpZ with C-terminal fusion to the green fluorescent protein (from UniProt P60844 1-231) (natural protein),stoichiometry N,[1],4
AmtB from Escherichia coli (from UniProt P69681 23-428) (natural protein),stoichiometry N,[2],3
B1,stoichiometry N,[3],2
B2,binding result,[4],binds
